# Measurements taken from the supplement of paper PMC12042874.
# ± gives the uncertainty stated by the source.
# Test: amyloid nucleation score (Sup35N fusion, yeast selection) (log enrichment); library NNK1; higher = more nucleation; inactive = no reads after selection
# In short: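 Nucleation score: DiMSum log enrichment of output over input reads, centred on the mode score of non-aggregating sequences. Only sequences with at least 100 input reads were kept. Reads came from Illumina sequencing of plasmid inserts before and after 7 days of growth at 30°C without adenine and uracil, in psi-negative yeast expressing Sup35N fused to peptides of 20 random codons after 24 hours of induction with 100 μM copper sulfate.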
row,Substance,amyloid nucleation score
1,NGRFSADS,-1.77 ± 1.6
2,DDSSDTEVRLGYALAGIKVG,-0.406 ± 0.34
3,FFCERVLPVRVVC,1.06 ± 0.76
4,LMCWFAGEDPVFVYTVFIVT,-1.49 ± 1.4
5,FVGQRKLLLKEEAQGFLQCK,-0.707 ± 1.2
6,VCSCRFLYI,-1.53 ± 1.6
7,MGVVQCAKRQQRLLMQLTVL,0.054 ± 0.93
8,CLSVLSCSVTSNYWLTS,7.984 ± 0.056
9,GRDLPYMTRRNTLWSSKVVF,0.206 ± 0.35
10,ICCISKILLFCISM,6.53 ± 0.091
11,DINWYTLDAHV,-1.86 ± 1.9
12,CSYSLSRFVLIHDRIVNMVT,1.35 ± 0.4
13,IRRYLSCPYNISIVYSENIV,-0.185 ± 0.71
14,LVVCAVVGSDLLWL,0.848 ± 0.72
15,RNTRTDSSTQTLLIVSHH,0.011 ± 0.51
16,FFGCCSRGARIDHVSRNHLL,0.185 ± 0.52
17,QISVNQIY,inactive
18,QNMLDWLKLGLYYHNFQAWV,-0.94 ± 2.7
19,AHSGMRLL,0.569 ± 0.75
20,RRSYVSSEMNTSKRKSCPLS,0.659 ± 0.45
21,NIGVMVLVLDARKDKRFGKI,7.65 ± 0.082
22,WEVVMWRYCAPRTGVLPQKP,-0.535 ± 1.2

row,Substance,amyloid nucleation score
1,GCKGGSATCSTRTWMCSWGG,2.27 ± 0.12
2,AGMTFRFLHEVSSSQSN,3.06 ± 0.13
3,EWVLFDAHAGRLVVPEH,-0.995 ± 1
4,SYRSVG,0.25 ± 0.59
5,ISGMRGFILLGRRVFTKVSS,-0.277 ± 0.33
6,FQSARR,0.575 ± 0.36
7,SWQSVSSAISV,-0.234 ± 0.85
8,VNNFIDCSSFCVYYLFKPGR,7.671 ± 0.051
9,AQWVLMWYVRHVR,1.49 ± 0.18
10,RLAYYFKGNANDFLAYLAKY,-0.66 ± 0.76
11,LTYRVFIHYRSRQYVFGTVS,-0.667 ± 0.62
12,PWCTGRLTGSNCKVYWITRS,0.515 ± 0.36
13,SKSFDRKMVC,-0.092 ± 0.33
14,PIFKMDCGDMVCT,0.121 ± 0.22
15,TFYRLSISVVSLNMVIHPGP,1.5 ± 0.2
16,YKSIWTRLGSGRSRVGLSRL,-0.38 ± 1
17,FVNIADDRRVYLILSVHGDL,6.575 ± 0.05
18,SCPGK,0.001 ± 0.44
19,MVVFMYVST,0.289 ± 0.39
20,GWQRSRVAVAPVVVTQSCGV,-0.671 ± 1.6
21,CSAVS,0.241 ± 0.39
22,SFSSPHLPYTCGSSIG,0.258 ± 0.66

row,Substance,amyloid nucleation score
1,MKAGFHYYLVMLVRKE,0.265 ± 0.31
2,LKQSYKKPY,inactive
3,HHLAKCRTLKLYLLWLQRIL,0.471 ± 0.54
4,RSGSLCGFLREKKVRNTFWV,-0.376 ± 0.59
5,IVLKVIINVCHYLTGGSTFA,6.475 ± 0.062
6,YSQYVVTSFTSLREVS,-0.332 ± 0.25
7,LVAFRYLRSGSSRLKFSVLF,-0.787 ± 0.48
8,NNSSIVFLW,-0.057 ± 1.4
9,DASSKIRPSIGRMQKHWY,-0.513 ± 0.85
10,WHPRSLVPPTRL,0.758 ± 0.56
11,RPNSYGSLWRERIGLIYTYE,1.33 ± 0.79
12,VNGYFAASDECFWCRSAGPN,0.555 ± 0.34
13,VLFIFRSRFNVE,3.47 ± 0.11
14,FDLRLRWRVA,0.295 ± 0.27
15,ELRYCEFTCSISWA,0.744 ± 0.36
16,TDEGLVCHK,0.522 ± 0.75
17,FFYNLFDILFFSFFRILSII,inactive
18,NRIISLCSLSCDYLNLDWCI,7.13 ± 0.08
19,HVSLVHLRYCRICSLLSMWG,2.77 ± 0.12
20,TMFHLWNFGCVALVR,-0.104 ± 0.34
21,HPALKWLCPGIERLCLAWSG,0.818 ± 0.61
22,KLCQVRHVSWIMSCQRYKQD,0.058 ± 0.49

row,Substance,amyloid nucleation score
1,VFFLGMVCAVWATFDVSYNG,1.31 ± 0.35
2,RNCFMGRTVNSVSNYVESSW,inactive
3,RGTWNDMASGEEVVAFIGEY,0.51 ± 0.35
4,VVLTYSWGAYRY,1.26 ± 0.23
5,STHNTRFGVY,0.167 ± 0.24
6,VWFNPYLNDRSREGGRVVWM,0.099 ± 0.27
7,SWTTARLNRSRSIFKNLRQE,0.028 ± 0.46
8,YMTQIMHKARRFNAWPAVMM,0.087 ± 0.3
9,EGSIFCMRNCRTIWCSEE,-0.359 ± 0.33
10,YLQFVRQRVCWLRLRPMMKA,-0.183 ± 0.56
11,GSGNSHLLYRSSNRCLVLYR,-0.134 ± 0.32
12,YCWRVSHLGNGRYRLSLSFG,inactive
13,TLNSPECDPNLSLML,-0.555 ± 1.1
14,ASSGSVGVLNLATHTTVKWQ,4.04 ± 0.14
15,NSWRRE,1.02 ± 0.93
16,RVSVDRPQRVGTGSPCCGGD,2.77 ± 0.11
17,DCAKTANDSDVLFFDTSGAR,0.504 ± 0.4
18,AGRSWSCMLVTVWSRTRVPL,0.351 ± 0.6
19,EPCMWKVILYCEYVSLVFVK,-0.974 ± 1.9
